The values below are quoted from earlier work in PMC3629029.

This series concerns the target calreticulin (Homo sapiens) (UniProt P27797). Briefly: SPR. On the technique in general: SPR reads the build-up and loss of mass on a sensor chip optically.
Chain of UniProt P27797 (P27797 18-417): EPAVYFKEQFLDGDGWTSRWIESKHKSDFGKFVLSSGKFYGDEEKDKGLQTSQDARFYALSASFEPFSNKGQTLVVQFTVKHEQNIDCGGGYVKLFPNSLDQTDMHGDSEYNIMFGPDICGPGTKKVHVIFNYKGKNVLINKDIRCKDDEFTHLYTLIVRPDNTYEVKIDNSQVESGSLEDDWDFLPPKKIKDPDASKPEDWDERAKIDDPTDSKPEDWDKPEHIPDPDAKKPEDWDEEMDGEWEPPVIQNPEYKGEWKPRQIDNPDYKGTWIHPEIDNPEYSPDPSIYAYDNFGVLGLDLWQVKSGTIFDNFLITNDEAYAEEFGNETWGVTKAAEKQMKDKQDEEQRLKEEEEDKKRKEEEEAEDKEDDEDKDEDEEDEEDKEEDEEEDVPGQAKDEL

Usually Kd stands for a measure of binding affinity in units of concentration. With PDIR (from UniProt Q14554), the Kd is 16 µM.
